Experiments:
[1] = biological target: T1, HA-Halo-MC3R (melanocortin-3 receptor) (human, UniProt P41968 1-323, CA-Sulfo646 dye on the Halo tag (SiMPull)); assay: single-molecule pull-down (SiMPull) with photobleaching step counting; two colours: lysate of HEK293 cells cotransfected with 300 ng HA-Halo-tagged and 600 ng FLAG-CLIP-tagged plasmid, labelled at the surface with CA-Sulfo646 and BC-DY547, lysed in 0.5% LMNG/0.05% CHS; HA-tagged protein immobilised on HA antibody; co-localised spots and bleaching steps counted by TIRF; settings: partners not purified
T1 construct: melanocortin-3 receptor (MC3R), human; S14 and the UBIRA repository (DOI 10.25500/edata.bham.00001385); also called ss-HA-Halo-MC3R; source: HEK293 (AD-293), transiently transfected, in lysate (LMNG-CHS) or in cells; not shown: HA, N-terminal, kept; Halo, N-terminal, kept
T1 sequence (P41968 whole entry): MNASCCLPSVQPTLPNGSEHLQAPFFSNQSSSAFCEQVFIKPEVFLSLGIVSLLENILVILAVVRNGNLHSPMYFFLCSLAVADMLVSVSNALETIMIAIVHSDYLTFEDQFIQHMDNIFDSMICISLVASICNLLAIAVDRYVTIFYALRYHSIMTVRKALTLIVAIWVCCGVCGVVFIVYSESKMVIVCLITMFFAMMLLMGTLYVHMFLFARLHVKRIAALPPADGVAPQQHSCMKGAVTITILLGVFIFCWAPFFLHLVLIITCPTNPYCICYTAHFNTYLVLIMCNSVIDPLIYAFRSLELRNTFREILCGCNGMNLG

[2] = biological target: the molecule itself; assay: single-molecule pull-down (SiMPull) with photobleaching step counting; one colour: HEK293 cells expressing the HA-Halo-tagged protein alone, labelled at the surface with membrane-impermeable CA-Sulfo646, lysed in 0.5% LMNG/0.05% CHS, immobilised by the HA tag on slides with biotinylated HA antibody, single molecules imaged by TIRF

Binder	stoichiometry N [1] [MRAP2 per MC3R]	stoichiometry N [2]
FLAG-CLIP-MRAP2 (melanocortin-2 receptor accessory protein 2) (natural protein, human, UniProt Q96G30 1-205, looked up, BC-DY547 (CLIP-surface 547) dye on the CLIP tag, melanocortin-2 receptor accessory protein 2 (MRAP2), human; S14 and the UBIRA repository; also called ss-FLAG-CLIP-MRAP2; source: HEK293 (AD-293), transiently transfected, in lysate (LMNG-CHS); not shown: FLAG, N-terminal, kept; CLIP, N-terminal, kept) MSAQRLISNRTSQQSASNSDYTWEYEYYEIGPVSFEGLKAHKYSIVIGFWVGLAVFVIFMFFVLTLLTKTGAPHQDNAESSEKRFRMNSFVSDFGRPLEPDKVFSRQGNEESRSLFHCYINEVERLDRAKACHQTTALDSDVQLQEAIRSSGQPEEELNRLMKFDIPNFVNTDQNYFGEDDLLISEPPIVLETKPLSQTSHKDLD	1	
mGluR2 (receptor, UniProt P31421 19-872, looked up, metabotropic glutamate receptor 2 (mGluR2); also called dimeric GPCR mGluR2) EGPAKKVLTLEGDLVLGGLFPVHQKGGPAEECGPVNEHRGIQRLEAMLFALDRINRDPHLLPGVRLGAHILDSCSKDTHALEQALDFVRASLSRGADGSRHICPDGSYATHSDAPTAVTGVIGGSYSDVSIQVANLLRLFQIPQISYASTSAKLSDKSRYDYFARTVPPDFFQAKAMAEILRFFNWTYVSTVASEGDYGETGIEAFELEARARNICVATSEKVGRAMSRAAFEGVVRALLQKPSARVAVLFTRSEDARELLAATQRLNASFTWVASDGWGALESVVAGSERAAEGAITIELASYPISDFASYFQSLDPWNNSRNPWFREFWEERFHCSFRQRDCAAHSLRAVPFEQESKIMFVVNAVYAMAHALHNMHRALCPNTTHLCDAMRPVNGRRLYKDFVLNVKFDAPFRPADTDDEVRFDRFGDGIGRYNIFTYLRAGSGRYRYQKVGYWAEGLTLDTSFIPWASPSAGPLPASRCSEPCLQNEVKSVQPGEVCCWLCIPCQPYEYRLDEFTCADCGLGYWPNASLTGCFELPQEYIRWGDAWAVGPVTIACLGALATLFVLGVFVRHNATPVVKASGRELCYILLGGVFLCYCMTFVFIAKPSTAVCTLRRLGLGTAFSVCYSALLTKTNRIARIFGGAREGAQRPRFISPASQVAICLALISGQLLIVAAWLVVEAPGTGKETAPERREVVTLRCNHRDASMLGSLAYNVLLIALCTLYAFKTRKCPENFNEAKFIGFTMYTTCIIWLAFLPIFYVTSSDYRVQTTTMCVSVSLSGSVVLGCLFAPKLHIILFQPQKNVVSHRAPTSRFGSAAPRASANLGQGSGSQFVPTVCNGREVVDSTTSSL		2

From publication PMC7618510, “The accessory protein MRAP2 directly interacts with melanocortin-3 receptor to enhance signaling” (Science signaling, 2025)
